Reference: publication PMC6340302 (ACS chemical biology, 2018)
Like-named read-outs stand apart in the source and are kept apart here. Each block holds one molecule with its values, some of them ahead of it.

What was measured:
dbOphMA [1] = target: T1, dbOphMA (Dendrothele bispora, UniProt A0A4S8L4Q5); assay: microscale thermophoresis; format: binding
T1 sequence (A0A4S8L4Q5 1-377): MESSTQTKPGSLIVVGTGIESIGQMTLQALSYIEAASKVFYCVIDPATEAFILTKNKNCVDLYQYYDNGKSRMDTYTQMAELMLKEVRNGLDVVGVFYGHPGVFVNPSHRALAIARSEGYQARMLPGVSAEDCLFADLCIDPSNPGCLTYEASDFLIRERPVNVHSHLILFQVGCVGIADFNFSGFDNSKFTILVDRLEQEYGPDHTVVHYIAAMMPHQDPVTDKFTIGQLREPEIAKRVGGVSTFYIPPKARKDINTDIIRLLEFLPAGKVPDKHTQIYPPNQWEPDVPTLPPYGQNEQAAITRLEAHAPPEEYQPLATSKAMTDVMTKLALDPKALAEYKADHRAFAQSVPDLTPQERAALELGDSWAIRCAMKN

dbOphMA [2] = target: T1, dbOphMA; assay: microscale thermophoresis; format: binding; remark: listed apart in the source
[3] = target: dbOphM, the catalytic component of dbOphMA (Met1-Asn377), which lacks the precursor peptide (Dendrothele bispora CBS 962.96); assay: crystal structure
[4] = target: dbOphMA, methyltransferase-precursor fusion protein from Dendrothele bispora CBS 962.96, full-length fusion (residues Met1-Ala417) (Dendrothele bispora CBS 962.96)
[5] = target: dbOphMA, methyltransferase-precursor fusion protein from Dendrothele bispora CBS 962.96, full-length fusion (residues Met1-Ala417) (Dendrothele bispora CBS 962.96); assay: crystal structure

Molecule: Nc1ncnc2c1ncn2[C@@H]1O[C@H](CSCC[C@H](N)C(=O)O)[C@@H](O)[C@H]1O [SAH, S-adenosyl homocysteine]
Kd (dbOphMA [1]): 6.88 µM

Molecule: C[S@@+](CC[C@H](N)C(=O)O)C[C@H]1O[C@@H](n2cnc3c(N)ncnc32)[C@H](O)[C@@H]1O [SAM, S-adenosyl methionine]
Kd (dbOphMA [2]): 80.7 µM

stoichiometry N [3]: 2
Molecule: dbOphM, the catalytic component of dbOphMA (Met1-Asn377), which lacks the precursor peptide (domain or fragment)

stoichiometry N [4]: 2 | stoichiometry N [5]: 2
Molecule: dbOphMA, methyltransferase-precursor fusion protein from Dendrothele bispora CBS 962.96, full-length fusion (residues Met1-Ala417) (enzyme)
